Laboratory results as given in patent US20220089777A1 (ARONORA, published 2022).

How the values were obtained:
[1] = target: T1, human coagulation factor XI (human, UniProt P03951 19-625); assay: solid phase binding assay, biotinylated antibody on immobilized FXI, apparent Kd
[2] = target: T2, mouse coagulation factor XI (mouse, UniProt Q91Y47 19-624); assay: as above
T2 construct: also called mouse FXI; mFXI

[3] = target: human activated coagulation factor XI (FXIa) (human) (UniProt P03951); assay: solid phase binding assay, biotinylated 14E11 on immobilized human FXIa
[4] = target: T1, human coagulation factor XI; assay: earlier solid phase binding assay (FIG. 2D), biotinylated 14E11 on immobilized FXI
[5] = target: T2, mouse coagulation factor XI; assay: as above
[6] = target: human activated coagulation factor XI (FXIa) (human) (UniProt P03951); assay: earlier solid phase binding assay (FIG. 2D), biotinylated 14E11 on immobilized FXIa
[7] = target: T1, human coagulation factor XI; assay: cell-based or functional assay
[8] = target: T2, mouse coagulation factor XI; assay: solid phase binding assay, biotinylated 14E11 on immobilized mouse FXI
[9] = target: T1, human coagulation factor XI; assay: solid phase binding assay, biotinylated 14E11 on immobilized human FXI
[10] = target: T3, human activated coagulation factor XI (FXIa) (human, UniProt P03951 19-625); assay: solid phase binding assay, biotinylated antibody on immobilized FXIa, apparent Kd
T3 construct: also called human FXIa; hFXIa
Protocol: Microtiter plates were coated with FXI or FXIa (2 μg/ml, 100 μL/well) in 50 mmol/L Na₂CO₃ pH 9.6 was incubated overnight at 4° C. in Immulon 2HB microtiter plates (Thermo Scientific). Wells were blocked with 150 μL phosphate buffered saline (PBS) with 2% BSA for 1 hour at room temperature. […] After washing with PBS-0.1% Tween-20 (PBS T), 100 μL streptavidin-horse-radish-peroxidase (ThermoFisher Scientific, 1:8000 dilution in FIBS) was added, and incubated at room temperature for 90 minutes. After washing with PBS-T, 100 μL substrate solution (12 mL 30 mmol/L citric acid; 100 mmol/L Na₂HPO₄, pH 5.0; and 1 o-phenylenediamine dihydrochloride tablet, 12 μL 30% H₂O₂) was added. Reactions were stopped after 10 min with 50 μL 2.5 M H₂SO₄. […] The data was analyzed by non-linear regression analysis and the apparent Kd (equilibrium dissociation constant) was calculated as the concentration of AB023 needed to achieve half-max binding at equilibrium using GraphPad Prism (v. 5.0).

14E11, murine monoclonal anti-FXI antibody, sequence (VH): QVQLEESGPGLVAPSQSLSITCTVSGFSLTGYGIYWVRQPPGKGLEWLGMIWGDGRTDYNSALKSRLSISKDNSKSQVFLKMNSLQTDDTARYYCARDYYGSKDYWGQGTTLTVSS
14E11, murine monoclonal anti-FXI antibody, sequence (VL): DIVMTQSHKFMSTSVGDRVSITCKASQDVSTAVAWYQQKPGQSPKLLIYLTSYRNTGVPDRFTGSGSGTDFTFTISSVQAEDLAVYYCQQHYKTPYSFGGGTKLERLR

Row | Kd [1] | Kd [2] | EC50 (read off the curve) [3] | Kd [4] | Kd [5] | Kd [6] | aPTT of plasma, antibody concentration at maximum inhibition [7] | EC50 (read off the curve) [8] | EC50 (read off the curve) [9] | fold prolongation of aPTT of FXI deficient plasma + 10 µg/mL FXI after adding 100 µg/mL AB023 [7] | Kd [10] | Molecule
1 | 390 pM | 70 pM | 3 pM | 2 to 3 pM | 2 to 3 pM | 2 to 3 pM | 25 to 50 nM | 3 pM | 3 pM | – | – | 14E11, murine monoclonal anti-FXI antibody
2 | 3200 pM | 160 pM | – | – | – | – | – | – | – | ~2 fold | 1300 pM | AB023, humanized anti-FXI monoclonal antibody (variant VH3/Vκ3, clone 3G3) (antibody, V domains shown, Human IgG4 with S241P (Kabat) hinge modification, kappa light chain; also called A13023; A8023) VH: QVQLQESGPGLVKPSETLSITCTVSGFSLTGYGIYWVRQPPGKGLEWLGMIWGDGRTDYNSALKSRVTISKDNSKSQVSLKLSSVTAADTARYYCARDYYGSKDYWGQGTTVTVSS VL: DIQMTQSPSSLSASVGDRVTITCKASQDVSTAVAWYQQKPGKAPKLLIYLTSYRNTGVPDRFSGSGSGTDFTFTISSLQPEDIAVYYCQQHYKTPYSFGGGTKVEIKR
